First the molecules themselves.
B1: His-tagged HSP20 protein (natural protein, UniProt O14558 1-160, looked up)
chain: MEIPVPVQPSWLRRASAPLPGLSAPGRLFDQRFGEGLLEAELAALCPTTLAPYYLRAPSVALPVAQVPTDPGHFSVLLDVKHFSPEEIAVKVVGEHVEVHARHEERPDEHGFVAREFHRRYRLPPGVDPAAVTSALSPEGVLSIQAAPASAQAPPPAAAK
notes: HSP20 (heat shock protein 20), open reading frame from Ultimate ORF clone IOH57317 in pENTR221, moved into pDEST-17 by Gateway cloning; also called His-HSP20; His-Hsp20; source: E. coli, purified (Ni-NTA Superflow resin); not shown: His, N-terminal, kept

The target in test [1] is T1, PKD1 on the ProtoArray Human Protein Microarray (human, UniProt Q15139 1-912).
T1 construct: protein kinase D1 (PKD1) as spotted on the human protein microarray; construct not described; Proteins on this commercial array may carry a carrier tag; also called protein kinase D1; source: spotted on ProtoArray Human Protein Microarray (Invitrogen)
T1 sequence (looked up): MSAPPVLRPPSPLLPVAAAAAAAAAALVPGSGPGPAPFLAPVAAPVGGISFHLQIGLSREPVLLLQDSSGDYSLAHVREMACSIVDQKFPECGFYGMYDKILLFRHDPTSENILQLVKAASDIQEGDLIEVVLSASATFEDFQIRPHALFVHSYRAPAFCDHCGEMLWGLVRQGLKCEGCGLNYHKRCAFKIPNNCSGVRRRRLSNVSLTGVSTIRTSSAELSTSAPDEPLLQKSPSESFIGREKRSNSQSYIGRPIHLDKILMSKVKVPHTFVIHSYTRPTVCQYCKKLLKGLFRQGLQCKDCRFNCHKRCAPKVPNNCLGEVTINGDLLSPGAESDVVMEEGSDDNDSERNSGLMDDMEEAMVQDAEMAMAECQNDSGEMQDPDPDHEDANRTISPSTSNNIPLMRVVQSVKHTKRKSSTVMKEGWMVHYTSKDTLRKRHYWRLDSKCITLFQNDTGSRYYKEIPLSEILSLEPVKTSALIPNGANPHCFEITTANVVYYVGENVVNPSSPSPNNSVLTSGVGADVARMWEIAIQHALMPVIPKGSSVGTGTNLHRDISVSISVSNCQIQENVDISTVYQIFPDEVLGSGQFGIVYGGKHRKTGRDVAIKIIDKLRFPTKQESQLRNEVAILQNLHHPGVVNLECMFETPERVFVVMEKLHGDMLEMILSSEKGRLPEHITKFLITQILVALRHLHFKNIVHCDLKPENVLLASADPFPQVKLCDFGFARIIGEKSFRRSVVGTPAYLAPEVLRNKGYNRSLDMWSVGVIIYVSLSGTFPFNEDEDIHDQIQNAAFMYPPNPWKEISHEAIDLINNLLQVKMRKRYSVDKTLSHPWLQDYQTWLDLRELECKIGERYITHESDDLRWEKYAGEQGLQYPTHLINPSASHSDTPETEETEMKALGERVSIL
The test can be described thus: peptide or protein array; ProtoArray Human Protein Microarray probed with 10 uM (200 ug/ml) His-HSP20 in 1xPBS, 5 mM MgCl2, 0.5 mM DTT, 0.05% Triton X-100, 5% glycerol, 1% BSA for 1.5 h at 4 C; detected with anti-His and Alexa Fluor 647 secondary antibody; control array in parallel. To be noted: both partners purified.

Test [2] deals with B1. Put plainly: peptide or protein array; sequence of PKD1 spotted as 25mer peptides each shifted by five amino acids, and alanine scanning array of the 606-630 peptide, overlaid with Hsp20; methods in ref. 31. To be noted: both partners purified.

As to B1, the binding result in test [1] was “binds”.

B2: PKD1 25mer peptide spanning residues 606 to 630 (peptide array spot) (peptide)
peptide: GRDVAIKIIDKLRFPTKQESQLRNE
notes: also called G606-E630; source: SPOT-synthesised peptide on array
As to B2, the binding result in test [2] is “binds”.

The values are drawn from PMC4356135, “Small heat shock protein 20 (Hsp20) facilitates nuclear import of protein kinase D 1 (PKD1) during cardiac hypertrophy” (Cell Communication and Signaling : CCS, 2015).
